{"source": "paper PMC3790011", "about": "“Transcription Factor Reb1p Regulates DGK1-encoded Diacylglycerol Kinase and Lipid Metabolism in Saccharomyces cerevisiae*”", "binders": {"B1": {"name": "DGK1 promoter Reb1p site wild type (dsDNA)", "DNA 1": "AGGGTCCATAGCGGGTAACAAATTATTGG", "DNA 2": "CCAATAATTTGTTACCCGCTATGGACCCT"}, "B2": {"name": "unlabeled DGK1 wild type competitor (dsDNA)", "DNA 1": "AGGGTCCATAGCGGGTAACAAATTATTGG", "DNA 2": "CCAATAATTTGTTACCCGCTATGGACCCT"}}, "key": {"[1]": {"target": "T1, Reb1p (His6-Reb1p) (Saccharomyces cerevisiae RS453, UniProt P21538 1-810)", "T1 sequence": "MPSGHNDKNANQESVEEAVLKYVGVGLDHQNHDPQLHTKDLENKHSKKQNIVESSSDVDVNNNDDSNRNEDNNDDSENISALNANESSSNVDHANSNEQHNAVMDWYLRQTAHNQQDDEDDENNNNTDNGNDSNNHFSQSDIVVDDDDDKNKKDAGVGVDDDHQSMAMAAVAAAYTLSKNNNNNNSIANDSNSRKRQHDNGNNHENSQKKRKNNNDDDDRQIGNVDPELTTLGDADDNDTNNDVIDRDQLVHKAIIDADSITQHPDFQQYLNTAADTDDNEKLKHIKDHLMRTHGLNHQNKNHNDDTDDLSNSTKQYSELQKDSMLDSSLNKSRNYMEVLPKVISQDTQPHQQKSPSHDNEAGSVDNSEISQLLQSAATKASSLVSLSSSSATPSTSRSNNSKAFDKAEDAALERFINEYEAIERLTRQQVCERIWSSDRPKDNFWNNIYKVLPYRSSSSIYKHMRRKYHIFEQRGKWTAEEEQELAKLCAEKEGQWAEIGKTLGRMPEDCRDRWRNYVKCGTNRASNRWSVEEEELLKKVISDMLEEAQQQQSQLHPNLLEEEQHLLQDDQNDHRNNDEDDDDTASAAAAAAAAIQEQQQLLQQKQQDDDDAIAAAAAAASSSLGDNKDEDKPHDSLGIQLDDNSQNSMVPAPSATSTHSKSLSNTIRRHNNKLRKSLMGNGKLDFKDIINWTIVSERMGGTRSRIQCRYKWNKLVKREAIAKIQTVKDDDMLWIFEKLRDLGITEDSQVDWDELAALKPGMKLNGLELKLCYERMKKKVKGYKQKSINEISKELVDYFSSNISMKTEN", "test": "EMSA; 10 mM Mg2+; 0.2-1.0 ug Reb1p, 4 pmol probe; 10 mM Tris-HCl pH 8.0, 10 mM MgCl2, 50 mM KCl, 1 mM DTT, 0.025 mg/ml poly(dI-dC), 0.2 mg/ml BSA, 0.04% IGEPAL CA-630, 10% glycerol; 15 min, room temperature; 5% PAGE in 0.5x TBE", "conditions": "protein: recombinant; tags: N-terminal His6 (pET-15b); label: 32P (alpha-32P dTTP, Klenow); blunt"}, "[2]": {"target": "T1, Reb1p (His6-Reb1p)", "test": "competition; 10 mM Mg2+; 0.5 ug Reb1p, 4-16 pmol unlabeled competitor against 4 pmol labeled wild type probe; 10 mM Tris-HCl pH 8.0, 10 mM MgCl2, 50 mM KCl, 1 mM DTT, 0.025 mg/ml poly(dI-dC), 0.2 mg/ml BSA, 0.04% IGEPAL CA-630, 10% glycerol; 15 min, room temperature; 5% PAGE in 0.5x TBE", "conditions": "protein: recombinant; tags: N-terminal His6 (pET-15b); blunt"}}, "data": [{"binder": "B1", "values": [{"measurement": "binding result", "setting": "[1]", "value": "binds"}]}, {"binder": "B2", "values": [{"measurement": "binding result", "setting": "[2]", "value": "binds"}]}]}
